The labels stand for the following.
B1: P140K: O^6BG-resistant MGMT polypeptide with K at position 140, SEQ ID NO: 8; used as control (protein)
chain: MDKDCEMKRTTLDSPLGKLELSGCEQGLHEIKLLGKGTSAADAVEVPAPAAVLGGPEPLMQCTAWLNAYFHQPEAIEEFPVPALHHPVFQQESFTRQVLWKLLKVVKFGEVISYQQLAALAGNPKAARAVGGAMRGNPVKILIPCHRVVCSSGAVGNYSGGLAVKEWLLAHEGHRLGKPGLGGSSGLAGAWLKGAGATSGSPPAGRN
modifications: REGION 1..207: note = Synthetic: MGMTP140K
notes: used as control
B2: L33R: MGMT polypeptide with mutation L33R (protein)
chain: B1 chain with L33R, K140P
B3: L33W: MGMT polypeptide with mutation L33W (protein)
chain: B1 chain with L33W, K140P
B4: L33Y: MGMT polypeptide with mutation L33Y (protein)
chain: B1 chain with L33Y, K140P
B5: M134V: MGMT polypeptide with mutation M134V (protein)
chain: B1 chain with M134V, K140P
B6: L33F: MGMT polypeptide with mutation L33F (protein)
chain: B1 chain with L33F, K140P
B7: L33P: MGMT polypeptide with mutation L33P (protein)
chain: B1 chain with L33P, K140P
B8: L33K: MGMT polypeptide with mutation L33K (protein)
chain: B1 chain with L33K, K140P
B9: M134F: MGMT polypeptide with mutation M134F (protein)
chain: B1 chain with M134F, K140P

We go through nine molecules from US20250135039A1, “INHIBITOR-RESISTANT MGMT MODIFICATIONS AND MODIFICATION OF MGMT-ENCODING NUCLEIC ACIDS” (Ensoma, Inc., priority 2022, published 2025).

Positions count from the first letter of the chain named. Numbers in names are those of the source.

One assay concerns U251 human glioblastoma cell line. Nature of the assay: in vitro FM-HCR assay of MGMT activity (mPlum O^6MeG reporter plasmid). It is filed as cell-based. The conditions noted are these: 100 μM O^6BG; U251 cells; flow cytometry 24 h after transfection; damaged/undamaged reporter; inversely related to MGMT activity. An excerpt:
The present Example includes, in part, an in vitro fluorescence multiplex host cell reactivation (FM-HCR) assay in which a reporter plasmid with O^6MeG-containing oligonucleotides is used. The oligonucleotides induce transcription errors that lead to expression of fluorescent mPlum protein. Functional MGMT will repair the O^6MeG sites and reduce mPlum expression. This represents a rapid and validated assay system to assess intracellular activity of MGMT. Further description of certain such assays is found in Nagel (2014 PNAS USA 111 (18): E1823-32, which is incorporated herein by reference.
The present Example uses an in vitro FM-HCR assay in which a reporter plasmid with 0° MeG-containing oligonucleotides is used to assay MGMT activity in cells. The O^6MeG-containing oligonucleotides induce transcription errors that lead to expression of fluorescent mPlum protein. Functional MGMT will repair the O'MeG sites and reduce mPlum expression. This represents a rapid and validated assay system to assess intracellular activity of MGMT. Further description of certain such assays is found in Nagel et al., 2014 PNAS USA 111 (18): E1823-32 and Piett et al., 2021 Nat. Protoc. 16 (9): 4265-4298, each of which is incorporated herein by reference.
The in vitro FM-HCR assay was performed using the U251 human glioblastoma cell line. The cells were cultured in DMEM with 10% FBS and passaged every three days.
To express MGMT variants in the cells, plasmids encoding each MGMT variant were designed and generated by either de novo synthesis or cloning into the pTwist EF1 Alpha Puro vector at the HindII-BamHI multiple cloning site. The pTwist EF1 Alpha Puro plasmid vector drives expression of the MGMT transcript from a human EF1-alpha promoter including intron 1 and an SV40 polyadenylation signal. Plasmids encoding the MGMT variants were purified using standard molecular biology techniques from E. coli with low endotoxins. Plasmids encoding wild-type MGMT or O^6BG-resistant MGMT^P140K were also designed and generated for use as controls.
To perform the in vitro FM-HCR assay, U251 cells were seeded in 12-well plates at a density of 50,000 cells per well in 1 mL culture media. The following day, the media was changed to 1 mL of culture media containing O^6BG (100 μM O^6BG and 0.1% DMSO final) or 0.1% DMSO; and the cells were transfected with 1,000 ng of a plasmid cocktail using Lipofectamine 3000 (ThermoFisher Scientific) at 1.8 μL Lipofectamine 3000 Reagent and 2 μL P3000 reagent in Opti-MEM medium (ThermoFisher Scientific). […] For the “undamaged” condition, the plasmid cocktail replaced the mPlum O^6MeG reporter plasmid with 100 ng of a plasmid expressing mPlum. The plasmid encoding BFP was used as an internal transfection control. For transfections where no MGMT encoding plasmid is used (no pMGMT), 250 ng of additional carrier plasmid was used to maintain a total DNA amount of 1,000 ng in each transfection. Four hours after transfection, the transfection medium was changed.
All transfected cells were analyzed by flow cytometry at 24-hours after transfection. Data was analyzed as previously described in Nagel et al., 2014 PNAS USA 111 (18): E1823-32 and Piett et al., 2021 Nat. Protoc. 16 (9): 4265-4298. For each condition, normalized reporter expression was determined by taking the product of the mPlum-positive cell count and the mean mPlum fluorescence intensity in mPlum-positive cells and dividing it by the product of the BFP-positive cell count and the mean BFP fluorescence intensity in BFP-positive cells. Next, for each MGMT variant, the percent reporter expression was determined by taking the normalized reporter expression in the “damaged” condition and dividing it by the normalized reporter expression in the “undamaged” condition, and then multiplying by 100 to obtain a percent value. […]
In general terms: A flow cytometer gives signals particle by particle.
Regarding B1, the “Reporter expression (%) mean, O^6BG” value was found to be 34.8%.
As for B2, the “Reporter expression (%) mean, O^6BG” value was found to be 58.3%.
In the case of B3, the “Reporter expression (%) mean, O^6BG” value was determined as 57.7%.
For the molecule B4, the “Reporter expression (%) mean, O^6BG” value was 77.3%.
Take B5: the “Reporter expression (%) mean, O^6BG” value came out at 66.0%.
For the molecule B6, the “Reporter expression (%) mean, O^6BG” value amounted to 77.0%.
Take B7: the “Reporter expression (%) mean, O^6BG” value came out at 54.7%.
Still for that read-out and setting: for B8 the value was 62.3%.
Consider B9, for which the “Reporter expression (%) mean, O^6BG” value is listed as 97.0%.

Still in this assay, the particulars now being: 0.1% DMSO; U251 cells; flow cytometry 24 h after transfection; damaged/undamaged reporter; inversely related to MGMT activity.
On to B1, for which the “Reporter expression (%) mean, DMSO” value stood at 30.2%.
Consider B2, for which the “Reporter expression (%) mean, DMSO” value was determined as 15.0%.
The same measure, in the same setting: for B3 the value was 14.3%; for B4, 17.0%.
B5: the “Reporter expression (%) mean, DMSO” value was 17.8%.
Take B6: the “Reporter expression (%) mean, DMSO” value was found to be 14.3%.
Consider B7, for which the “Reporter expression (%) mean, DMSO” value worked out at 12.3%.
Same read-out and setting: for B8 the value was 16.0%; for B9, 51.3%.

Staying with this assay, now noted: DMSO condition; determined from percent reporter expression.
Regarding B1, the “MGMT activity (a.u.) DMSO” value is on record as 3.31 a.u.
On to B2, for which the “MGMT activity (a.u.) DMSO” value is 6.67 a.u.
For the molecule B3, the “MGMT activity (a.u.) DMSO” value is on record as 6.98 a.u.
Consider B4, for which the “MGMT activity (a.u.) DMSO” value is given as 5.88 a.u.
For B5, the “MGMT activity (a.u.) DMSO” value is on record as 5.63 a.u.
As for B6, the “MGMT activity (a.u.) DMSO” value is given as 6.98 a.u.
With B7, the “MGMT activity (a.u.) DMSO” value was found to be 8.11 a.u.
In the case of B8, the “MGMT activity (a.u.) DMSO” value is recorded as 6.25 a.u.
The same measure, in the same setting: with B9 the figure was 1.95 a.u.

Staying with this assay, now noted: DMSO condition; relative to wild-type MGMT in same condition.
As to B1, the “MGMT activity (% of WT) DMSO” value is listed as 61.3 % of WT.
The same measure, in the same setting: for B2 the value was 123.3 % of WT.
Regarding B3, the “MGMT activity (% of WT) DMSO” value is recorded as 129.1 % of WT.
Regarding B4, the “MGMT activity (% of WT) DMSO” value is listed as 108.8 % of WT.
Same read-out and setting: with B5 the figure was 104.2 % of WT; with B6, 129.1 % of WT.
Turning to B7, the “MGMT activity (% of WT) DMSO” value is recorded as 150.0 % of WT.
As to B8, the “MGMT activity (% of WT) DMSO” value is reported as 115.6 % of WT.
Turning to B9, the “MGMT activity (% of WT) DMSO” value is listed as 36.0 % of WT.

The assay is the same for the next values; noted with them: MGMT activity (a.u.) in O^6BG divided by DMSO x 100; higher values indicate resistance.
Take B1: the “Relative MGMT activity (%)” value is reported as 86.8%.
As to B2, the “Relative MGMT activity (%)” value is reported as 25.7%.
For B3, the “Relative MGMT activity (%)” value is 24.9%.
B4: the “Relative MGMT activity (%)” value is 22.0%.
B5: the “Relative MGMT activity (%)” value was found to be 26.9%.
As to B6, the “Relative MGMT activity (%)” value is 18.6%.
On the same count and under the same terms, for B7 the value was 22.6%; for B8, 25.7%.
For the molecule B9, the “Relative MGMT activity (%)” value is reported as 52.9%.

The same assay, now with this note: O^6BG condition; determined from percent reporter expression.
On to B1, for which the “MGMT activity (a.u.) O^6BG” value was found to be 2.87 a.u.
Same read-out and setting: for B2 the value was 1.71 a.u; for B3, 1.73 a.u.
As for B4, the “MGMT activity (a.u.) O^6BG” value is reported as 1.29 a.u.
With B5, the “MGMT activity (a.u.) O^6BG” value came out at 1.52 a.u.
B6: the “MGMT activity (a.u.) O^6BG” value was found to be 1.30 a.u.
On to B7, for which the “MGMT activity (a.u.) O^6BG” value came to 1.83 a.u.
The same measure, in the same setting: for B8 the value was 1.61 a.u; for B9, 1.03 a.u.

The same assay, now with this note: O^6BG condition; relative to wild-type MGMT in same condition.
For the molecule B1, the “MGMT activity (% of WT) O^6BG” value is 201.1 % of WT.
Same read-out and setting: with B2 the figure was 120.0 % of WT; with B3, 121.4 % of WT.
For the molecule B4, the “MGMT activity (% of WT) O^6BG” value is listed as 90.6 % of WT.
On the same count and under the same terms, with B5 the figure was 106.1 % of WT.
Turning to B6, the “MGMT activity (% of WT) O^6BG” value is given as 90.9 % of WT.
Turning to B7, the “MGMT activity (% of WT) O^6BG” value is reported as 128.0 % of WT.
Regarding B8, the “MGMT activity (% of WT) O^6BG” value is recorded as 112.4 % of WT.
Consider B9, for which the “MGMT activity (% of WT) O^6BG” value is on record as 72.2 % of WT.

The same assay, now with this note: lower values indicate resistance to O^6BG.
Take B1: the “Ratio percent reporter expression (O^6BG/DMSO)” value amounted to 1.15.
In the case of B2, the “Ratio percent reporter expression (O^6BG/DMSO)” value is 3.89.
Same read-out and setting: for B3 the value was 4.02.
Regarding B4, the “Ratio percent reporter expression (O^6BG/DMSO)” value stood at 4.54.
B5: the “Ratio percent reporter expression (O^6BG/DMSO)” value is 3.72.
Regarding B6, the “Ratio percent reporter expression (O^6BG/DMSO)” value worked out at 5.37.
As for B7, the “Ratio percent reporter expression (O^6BG/DMSO)” value was 4.43.
The same measure, in the same setting: with B8 the figure was 3.89; with B9, 1.89.

The same assay, now with this note: percentage difference in relative MGMT activity between variant and wild-type MGMT.
For the molecule B1, the “O^6BG resistance relative to WT (%)” value amounted to 228.4%.
In the case of B2, the “O^6BG resistance relative to WT (%)” value is recorded as −2.7%.
In the case of B3, the “O^6BG resistance relative to WT (%)” value is given as −6.0%.
As to B4, the “O^6BG resistance relative to WT (%)” value is −16.7%.
Regarding B5, the “O^6BG resistance relative to WT (%)” value was determined as 1.8%.
Consider B6, for which the “O^6BG resistance relative to WT (%)” value was −29.6%.
Take B7: the “O^6BG resistance relative to WT (%)” value is −14.6%.
For the molecule B8, the “O^6BG resistance relative to WT (%)” value is −2.7%.
On to B9, for which the “O^6BG resistance relative to WT (%)” value amounted to 100.2%.
